Assay results taken from the supplement of paper PMC10065799, “High-throughput profiling of sequence recognition by tyrosine kinases and SH2 domains using bacterial peptide display” (eLife, 2023).

How the values were obtained:
AncSZ = test: phosphorylation enrichment, bacterial display (enrichment ratio); higher = better substrate or ligand; peptides without Tyr show the background
EPHB1 = EPHB1 (UniProt P54762); test: as above
EPHB2 = EPHB2 (UniProt P29323); test: as above
FGFR1 = FGFR1 (UniProt P11362); test: as above
MERTK = MERTK (UniProt Q12866); test: as above
Fes = Fes (UniProt P07332); test: as above
Fyn = Fyn (UniProt P06241); test: as above
c-Src = test: as above
c-Abl (mouse) = test: as above
Fer (mouse) = test: as above
FGFR3 = FGFR3 (UniProt P22607); test: as above
Hck = Hck (UniProt P08631); test: as above
Jak2 = Jak2 (UniProt O60674); test: as above
SHP2-C SH2 = test: SH2 binding enrichment of the phosphorylated peptide, bacterial display (enrichment ratio); higher = better substrate or ligand; peptides without Tyr show the background
Grb2 SH2 = Grb2 SH2 (UniProt P62993); test: as above
c-Src SH2 = test: as above
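For SH2 binding enrichment of the phosphorylated peptide, bacterial display in this document: peptide library displayed on the E. coli surface as eCPX fusions, selected cells deep-sequenced, score is each peptide's frequency after selection divided by its frequency in the input.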
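For phosphorylation enrichment, bacterial display in this document: 11-residue human phosphosite peptides and single-mutation variants displayed on the E. coli surface, counted by deep sequencing, each peptide's frequency after selection divided by its frequency in the unselected input library; frequency after pTyr selection over input frequency; kinase dosed for 20-30% of maximal phosphorylation in three min.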

Sequence of Fes (P07332 whole entry, looked up): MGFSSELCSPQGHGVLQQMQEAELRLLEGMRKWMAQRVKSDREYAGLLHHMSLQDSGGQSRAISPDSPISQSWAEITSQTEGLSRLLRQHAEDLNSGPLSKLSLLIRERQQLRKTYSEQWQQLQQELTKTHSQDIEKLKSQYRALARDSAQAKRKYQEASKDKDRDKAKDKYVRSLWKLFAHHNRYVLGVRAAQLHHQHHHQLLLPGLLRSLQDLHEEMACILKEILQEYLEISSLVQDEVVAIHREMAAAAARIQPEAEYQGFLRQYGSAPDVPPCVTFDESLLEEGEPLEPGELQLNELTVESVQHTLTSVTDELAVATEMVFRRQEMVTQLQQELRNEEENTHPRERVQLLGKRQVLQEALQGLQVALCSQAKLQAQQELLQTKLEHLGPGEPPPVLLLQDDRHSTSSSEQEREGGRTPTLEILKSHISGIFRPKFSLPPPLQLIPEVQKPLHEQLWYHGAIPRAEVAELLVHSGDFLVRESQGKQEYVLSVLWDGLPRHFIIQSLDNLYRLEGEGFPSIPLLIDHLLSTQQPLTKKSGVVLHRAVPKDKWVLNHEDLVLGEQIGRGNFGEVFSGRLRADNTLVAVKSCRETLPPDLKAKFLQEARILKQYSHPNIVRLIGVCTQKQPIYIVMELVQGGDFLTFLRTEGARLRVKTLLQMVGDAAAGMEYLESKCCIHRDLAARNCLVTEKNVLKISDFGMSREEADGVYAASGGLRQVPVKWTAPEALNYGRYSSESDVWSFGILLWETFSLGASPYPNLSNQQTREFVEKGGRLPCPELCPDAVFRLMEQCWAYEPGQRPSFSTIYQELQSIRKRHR
Sequence of MERTK (Q12866 whole entry, looked up): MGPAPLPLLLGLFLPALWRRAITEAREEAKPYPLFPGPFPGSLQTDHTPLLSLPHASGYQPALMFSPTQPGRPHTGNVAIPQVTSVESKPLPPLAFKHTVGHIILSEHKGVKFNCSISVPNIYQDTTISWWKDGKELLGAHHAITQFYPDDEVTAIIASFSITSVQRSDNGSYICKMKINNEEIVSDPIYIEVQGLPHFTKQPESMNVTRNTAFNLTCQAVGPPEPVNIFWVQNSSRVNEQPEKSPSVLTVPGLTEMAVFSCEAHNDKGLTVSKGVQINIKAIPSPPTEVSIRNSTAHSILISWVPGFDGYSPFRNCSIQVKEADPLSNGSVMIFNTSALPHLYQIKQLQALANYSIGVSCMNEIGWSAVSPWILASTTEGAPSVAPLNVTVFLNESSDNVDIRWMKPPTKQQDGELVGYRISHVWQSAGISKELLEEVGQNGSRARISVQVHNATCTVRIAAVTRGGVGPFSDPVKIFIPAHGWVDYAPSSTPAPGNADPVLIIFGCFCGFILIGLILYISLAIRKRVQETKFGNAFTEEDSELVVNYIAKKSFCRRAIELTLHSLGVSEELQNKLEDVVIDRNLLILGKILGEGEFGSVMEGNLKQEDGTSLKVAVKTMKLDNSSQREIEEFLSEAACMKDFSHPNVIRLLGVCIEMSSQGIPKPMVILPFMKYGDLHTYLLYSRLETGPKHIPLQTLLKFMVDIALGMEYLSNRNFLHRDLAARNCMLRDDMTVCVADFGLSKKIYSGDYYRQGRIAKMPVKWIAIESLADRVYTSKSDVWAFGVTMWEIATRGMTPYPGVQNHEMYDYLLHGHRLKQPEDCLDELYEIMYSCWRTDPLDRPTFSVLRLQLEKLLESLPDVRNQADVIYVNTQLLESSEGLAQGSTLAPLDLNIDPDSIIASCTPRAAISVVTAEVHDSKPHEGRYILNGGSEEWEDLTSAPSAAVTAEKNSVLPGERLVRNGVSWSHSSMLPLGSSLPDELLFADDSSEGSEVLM
Sequence of FGFR3 (P22607 whole entry, looked up): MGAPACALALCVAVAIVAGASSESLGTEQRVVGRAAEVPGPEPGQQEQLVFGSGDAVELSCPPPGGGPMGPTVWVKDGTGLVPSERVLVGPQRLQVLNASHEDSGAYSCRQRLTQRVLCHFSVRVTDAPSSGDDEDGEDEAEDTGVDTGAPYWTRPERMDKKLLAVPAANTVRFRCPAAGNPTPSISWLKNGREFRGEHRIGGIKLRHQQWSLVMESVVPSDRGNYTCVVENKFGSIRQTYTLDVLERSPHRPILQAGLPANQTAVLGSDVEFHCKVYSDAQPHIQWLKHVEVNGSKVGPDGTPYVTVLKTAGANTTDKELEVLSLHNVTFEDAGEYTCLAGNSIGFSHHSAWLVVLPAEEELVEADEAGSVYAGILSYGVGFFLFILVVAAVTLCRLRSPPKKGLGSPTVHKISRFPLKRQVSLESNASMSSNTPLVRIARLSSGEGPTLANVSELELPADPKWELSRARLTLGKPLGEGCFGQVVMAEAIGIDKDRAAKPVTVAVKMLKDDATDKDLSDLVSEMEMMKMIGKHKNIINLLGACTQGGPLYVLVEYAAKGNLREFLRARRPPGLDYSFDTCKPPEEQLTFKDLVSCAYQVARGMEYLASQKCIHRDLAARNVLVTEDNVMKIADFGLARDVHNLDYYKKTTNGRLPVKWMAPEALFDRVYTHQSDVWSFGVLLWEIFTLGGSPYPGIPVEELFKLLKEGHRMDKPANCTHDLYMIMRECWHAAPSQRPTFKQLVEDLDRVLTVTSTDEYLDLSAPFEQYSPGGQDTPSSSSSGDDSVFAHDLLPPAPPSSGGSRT
Sequence of Hck (P08631 whole entry, looked up): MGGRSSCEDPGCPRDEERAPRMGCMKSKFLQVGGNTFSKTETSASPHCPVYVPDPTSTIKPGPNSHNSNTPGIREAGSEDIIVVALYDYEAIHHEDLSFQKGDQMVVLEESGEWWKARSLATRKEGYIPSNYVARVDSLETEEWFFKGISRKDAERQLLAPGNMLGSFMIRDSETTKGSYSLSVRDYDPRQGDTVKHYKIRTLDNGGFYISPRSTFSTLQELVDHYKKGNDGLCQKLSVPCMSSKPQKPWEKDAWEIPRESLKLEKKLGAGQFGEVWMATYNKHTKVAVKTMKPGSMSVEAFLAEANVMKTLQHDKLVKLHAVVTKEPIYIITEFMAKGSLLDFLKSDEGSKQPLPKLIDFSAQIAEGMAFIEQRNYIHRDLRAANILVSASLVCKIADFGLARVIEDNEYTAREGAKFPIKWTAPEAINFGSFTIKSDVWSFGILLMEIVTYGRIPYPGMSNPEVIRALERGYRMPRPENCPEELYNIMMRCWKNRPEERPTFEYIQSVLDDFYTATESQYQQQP
Sequence of Fyn (P06241 whole entry, looked up): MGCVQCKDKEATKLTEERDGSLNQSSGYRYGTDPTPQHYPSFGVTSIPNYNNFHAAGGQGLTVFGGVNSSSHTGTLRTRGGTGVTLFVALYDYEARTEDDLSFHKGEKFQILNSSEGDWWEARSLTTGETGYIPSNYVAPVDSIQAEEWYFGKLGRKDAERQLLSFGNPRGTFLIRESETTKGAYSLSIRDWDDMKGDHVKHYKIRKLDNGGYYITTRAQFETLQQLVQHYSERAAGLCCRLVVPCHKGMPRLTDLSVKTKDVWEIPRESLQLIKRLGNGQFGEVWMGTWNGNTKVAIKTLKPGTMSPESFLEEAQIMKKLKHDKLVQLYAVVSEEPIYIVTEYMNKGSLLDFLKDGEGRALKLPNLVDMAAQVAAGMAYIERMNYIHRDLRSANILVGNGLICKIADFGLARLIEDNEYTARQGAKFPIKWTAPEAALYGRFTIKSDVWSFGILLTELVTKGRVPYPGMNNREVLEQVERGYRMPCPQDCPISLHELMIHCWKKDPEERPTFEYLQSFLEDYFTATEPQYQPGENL
Sequence of EPHB2 (P29323 whole entry, looked up): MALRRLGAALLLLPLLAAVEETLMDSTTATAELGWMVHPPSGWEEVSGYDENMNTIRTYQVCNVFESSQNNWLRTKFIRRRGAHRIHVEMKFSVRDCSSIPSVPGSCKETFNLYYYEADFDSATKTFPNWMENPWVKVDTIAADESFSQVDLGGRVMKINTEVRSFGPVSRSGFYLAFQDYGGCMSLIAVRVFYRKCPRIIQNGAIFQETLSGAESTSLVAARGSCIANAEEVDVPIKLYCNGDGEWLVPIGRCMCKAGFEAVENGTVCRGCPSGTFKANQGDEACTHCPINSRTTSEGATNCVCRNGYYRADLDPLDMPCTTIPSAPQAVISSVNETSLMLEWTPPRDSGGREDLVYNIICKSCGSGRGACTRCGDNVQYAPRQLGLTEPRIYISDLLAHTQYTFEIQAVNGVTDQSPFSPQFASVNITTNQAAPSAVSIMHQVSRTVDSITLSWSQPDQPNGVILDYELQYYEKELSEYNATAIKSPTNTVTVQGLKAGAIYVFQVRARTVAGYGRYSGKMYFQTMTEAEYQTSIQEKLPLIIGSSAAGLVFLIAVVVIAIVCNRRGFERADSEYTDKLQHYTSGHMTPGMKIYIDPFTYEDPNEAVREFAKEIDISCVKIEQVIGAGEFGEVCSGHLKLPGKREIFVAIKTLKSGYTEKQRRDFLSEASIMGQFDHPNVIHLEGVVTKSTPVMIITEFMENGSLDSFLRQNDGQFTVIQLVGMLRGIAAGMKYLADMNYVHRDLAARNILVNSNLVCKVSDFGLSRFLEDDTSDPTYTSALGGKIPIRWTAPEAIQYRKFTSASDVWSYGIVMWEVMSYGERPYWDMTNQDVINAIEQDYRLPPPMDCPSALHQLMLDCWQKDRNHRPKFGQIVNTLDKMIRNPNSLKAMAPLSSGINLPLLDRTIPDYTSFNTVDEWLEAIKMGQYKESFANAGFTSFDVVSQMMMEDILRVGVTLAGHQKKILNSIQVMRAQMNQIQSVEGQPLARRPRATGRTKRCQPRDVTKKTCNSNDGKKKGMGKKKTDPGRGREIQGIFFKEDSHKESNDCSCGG

Row | Sequence | SH2 binding enrichment (SHP2-C SH2) | SH2 binding enrichment (Grb2 SH2) | SH2 binding enrichment (c-Src SH2) | phosphorylation enrichment (AncSZ) | phosphorylation enrichment (EPHB1) | phosphorylation enrichment (EPHB2) | phosphorylation enrichment (FGFR1) | phosphorylation enrichment (MERTK) | phosphorylation enrichment (Fes) | phosphorylation enrichment (Fyn) | phosphorylation enrichment (c-Src) | phosphorylation enrichment (c-Abl (mouse)) | phosphorylation enrichment (Fer (mouse)) | phosphorylation enrichment (FGFR3) | phosphorylation enrichment (Hck) | phosphorylation enrichment (Jak2)
1 | RSRSPYSPVFR [CDK13_Y399_L403F] | 0.405 | 0.706 | 0.463 | 0.812 | 0.546 | 0.452 | 0.459 | 0.655 | 0.77 | 0.6 | 0.576 | 0.58 | 0.403 | 0.462 | 0.736 | 0.737
2 | RVNSAYQDKVS [ACAN_Y100] | 0.679 | 0.784 | 0.455 | 0.849 | 0.642 | 0.648 | 0.513 | 0.498 | 0.796 | 0.517 | 0.484 | 1.06 | 0.437 | 0.567 | 0.396 | 1.36
3 | RWHEGYRQTPK [CD44_Y412] | 1.73 | 1.47 | 0.898 | 0.66 | 0.407 | 0.589 | 0.405 | 0.356 | 0.678 | 0.418 | 0.361 | 0.418 | 0.367 | 0.595 | 0.429 | 0.607
4 | RWHEGYRQTPR [CD44_Y412_K417R] | 1.23 | 1.43 | 1.7 | 0.645 | 0.461 | 0.383 | 0.433 | 0.539 | 0.851 | 0.299 | 0.35 | 0.65 | 0.613 | 0.663 | 0.345 | 0.539
5 | SAQHHYESLQT [BIN1_Y157_R154Q] | 0.903 | 0.781 | 36.4 | 0.763 | 0.463 | 0.402 | 0.47 | 0.504 | 0.622 | 0.418 | 0.433 | 0.601 | 0.703 | 0.442 | 0.513 | 0.484
6 | SARHHYESLQT [BIN1_Y157] | 0.952 | 0.854 | 34.4 | 0.532 | 0.431 | 0.374 | 0.445 | 0.455 | 0.564 | 0.36 | 0.447 | 0.636 | 0.499 | 0.396 | 0.446 | 0.479
7 | SEEVTYATLTF [CLEC12B_Y7] | 2.52 | 0.845 | 0.481 | 1.48 | 0.98 | 1.07 | 1.49 | 2.18 | 1.53 | 6.58 | 5.28 | 5.98 | 2.19 | 1.57 | 5.06 | 1.38
8 | SGTFQYIIAKF [FOXL2_Y83_I80T_YF] | 0.572 | 0.699 | 0.58 | 1.09 | 0.448 | 0.491 | 0.494 | 0.393 | 1.27 | 0.532 | 0.366 | 0.878 | 0.473 | 0.793 | 0.418 | 0.953
9 | SHKELYKWFTS [DYNC1H1_Y3051_E3048K] | 1.05 | 1.02 | 0.777 | 0.634 | 0.544 | 0.439 | 0.897 | 0.66 | 0.812 | 0.513 | 0.576 | 0.566 | 0.574 | 0.501 | 0.566 | 0.717
10 | SHLSAFPALEG [CD5_Y465_Y465F] | 0.751 | 0.734 | 0.529 | 0.553 | 0.431 | 0.367 | 0.354 | 0.347 | 0.612 | 0.352 | 0.328 | 0.407 | 0.312 | 0.52 | 0.402 | 0.5
11 | SHSMRYFFTAV [HLA-C_Y31_D33F] | 1.33 | 1.39 | 1.25 | 1.13 | 0.595 | 0.626 | 0.62 | 0.525 | 1.3 | 0.53 | 0.568 | 0.923 | 0.619 | 0.874 | 0.525 | 1.13
12 | SIKDKHVTALF [KCNH2_Y611_Y611H_YF] | 0.456 | 0.659 | 0.443 | 0.576 | 0.354 | 0.42 | 0.418 | 0.469 | 0.633 | 0.417 | 0.52 | 0.486 | 0.399 | 0.435 | 0.463 | 0.441
13 | SISLKYEGRVY [ABL1_Y167_R166K] | 0.66 | 0.814 | 0.388 | 1.13 | 0.663 | 0.747 | 0.51 | 0.451 | 1.38 | 0.47 | 0.511 | 0.983 | 0.499 | 0.897 | 0.507 | 1.24
14 | SKKSTYRALLD [GANC_Y43_Q44R] | 0.688 | 0.651 | 0.465 | 0.471 | 0.368 | 0.315 | 0.347 | 0.421 | 0.655 | 0.432 | 0.385 | 0.447 | 0.358 | 0.348 | 0.406 | 0.533

Continued, in another order:

Row | SH2 binding enrichment (SHP2-C SH2) | SH2 binding enrichment (Grb2 SH2) | SH2 binding enrichment (c-Src SH2) | Sequence | phosphorylation enrichment (AncSZ) | phosphorylation enrichment (EPHB1) | phosphorylation enrichment (EPHB2) | phosphorylation enrichment (FGFR1) | phosphorylation enrichment (MERTK) | phosphorylation enrichment (Fes) | phosphorylation enrichment (Fyn) | phosphorylation enrichment (c-Src) | phosphorylation enrichment (c-Abl (mouse)) | phosphorylation enrichment (Fer (mouse)) | phosphorylation enrichment (FGFR3) | phosphorylation enrichment (Hck) | phosphorylation enrichment (Jak2)
15 | 0.501 | 0.712 | 0.33 | RRGMPYGGLGD [TGM1_Y312_R315L] | 0.618 | 0.302 | 0.536 | 0.445 | 1.02 | 0.663 | 0.503 | 0.398 | 0.66 | 0.456 | 0.443 | 0.391 | 0.352
16 | 0.556 | 0.686 | 0.358 | RRGTGYTLSLP [MAGEC3_Y152] | 0.579 | 0.553 | 0.643 | 0.772 | 0.551 | 0.812 | 0.73 | 0.497 | 0.764 | 0.564 | 0.643 | 0.693 | 0.477
17 | 0.534 | 0.902 | 0.53 | RRIHSYRGYLW [VHL_Y112_H115Y] | 0.646 | 0.614 | 0.605 | 0.581 | 0.488 | 0.905 | 0.551 | 0.517 | 0.375 | 0.676 | 0.915 | 0.64 | 0.717
18 | 0.794 | 1.28 | 1.11 | RSAGKYDVFFI [MECP2_Y120_L124F_YF] | 1.03 | 0.651 | 0.773 | 1.02 | 0.722 | 1.09 | 0.678 | 0.751 | 0.796 | 0.519 | 1.53 | 0.642 | 1.38
19 | 0.472 | 0.769 | 0.341 | RSDSTYRMSAT [NHS_Y1532_S1531T] | 0.587 | 0.411 | 0.556 | 0.558 | 0.335 | 0.581 | 0.528 | 0.632 | 0.697 | 0.587 | 0.637 | 0.436 | 0.709
20 | 0.613 | 0.744 | 0.668 | RSFSPYDFQPC [TNS1_Y796_YF] | 1.5 | 0.672 | 0.929 | 0.66 | 1.69 | 1.29 | 5.66 | 5.06 | 1.18 | 0.822 | 0.788 | 0.959 | 1.28
21 | 0.787 | 0.951 | 0.555 | RSHLSYDVTPE [IQGAP3_Y1098_P1097S] | 0.733 | 0.767 | 0.717 | 0.473 | 0.594 | 1.14 | 0.509 | 0.561 | 0.982 | 0.453 | 0.924 | 0.432 | 1.05
22 | 1.33 | 1.01 | 1.07 | RSPLRYISILT [OR51B6_Y130_T131I] | 0.724 | 0.446 | 0.473 | 0.676 | 0.376 | 0.8 | 0.409 | 0.322 | 0.419 | 0.606 | 0.763 | 0.515 | 0.475
23 | 0.855 | 0.938 | 0.563 | RTCSSYAIEKI [PARP15_Y520] | 1.13 | 0.532 | 0.702 | 0.589 | 0.344 | 0.986 | 0.302 | 0.383 | 0.667 | 0.371 | 0.629 | 0.581 | 0.894
24 | 0.763 | 1.11 | 0.627 | RYLTRYIYNRE [HLA-DQB1_Y62_V59L] | 1.91 | 4.73 | 0.773 | 0.564 | 3.87 | 1.32 | 1.11 | 1.57 | 1.07 | 0.813 | 0.772 | 0.621 | 1.92
25 | 0.676 | 0.845 | 0.636 | SDGHEYIFVDR [PDGFRB_Y579_P584R_YF] | 0.962 | 0.427 | 0.448 | 1.04 | 0.35 | 0.759 | 0.436 | 0.517 | 0.489 | 0.329 | 0.833 | 0.398 | 0.71
26 | 0.477 | 0.739 | 0.43 | SECCKYKIDNL [OSMR_Y689_P694L] | 0.864 | 0.551 | 0.384 | 0.462 | 0.432 | 0.939 | 0.446 | 0.436 | 0.748 | 0.473 | 0.685 | 0.428 | 0.823
27 | 0.767 | 0.868 | 0.442 | SFPPTYRFERG [INPPL1_Y661_YF] | 0.638 | 0.405 | 0.626 | 0.393 | 0.418 | 0.603 | 0.412 | 0.592 | 0.556 | 0.362 | 0.476 | 0.369 | 0.51
28 | 0.759 | 0.777 | 2.12 | SFTDPYAQPSL [KMT2D_Y2378_P2382S_YF] | 0.743 | 0.47 | 0.526 | 0.508 | 0.429 | 0.806 | 0.481 | 0.447 | 0.747 | 0.447 | 0.67 | 0.581 | 0.689
29 | 0.737 | 0.735 | 0.425 | SGFESYGSSSS [RPA2_Y9_Y14S] | 0.651 | 0.47 | 0.617 | 0.461 | 0.502 | 0.658 | 0.453 | 0.541 | 0.633 | 0.521 | 0.599 | 0.484 | 0.555
30 | 0.723 | 0.803 | 0.539 | SGPRRYTIATL [TTR_Y125_A129T] | 0.472 | 1.36 | 0.344 | 0.432 | 0.425 | 0.44 | 0.377 | 0.375 | 0.39 | 0.361 | 0.398 | 0.372 | 1.03
31 | 0.913 | 0.942 | 1.44 | SKAFAYVHFDS [PABPC5_Y149_G146A_YF] | 0.935 | 0.447 | 0.483 | 0.449 | 0.443 | 1.36 | 0.382 | 0.424 | 0.669 | 0.537 | 0.828 | 0.51 | 1.09
32 | 0.898 | 0.981 | 0.574 | SKEPFYVHCIK [MYO1D_Y586_R588H_YF] | 1.08 | 0.614 | 0.577 | 0.484 | 0.433 | 1.07 | 0.44 | 0.418 | 0.631 | 0.467 | 0.682 | 0.528 | 0.864
33 | 0.683 | 0.852 | 1.77 | SLDHPYEKPRK [INAVA_Y333] | 0.741 | 0.349 | 0.467 | 0.339 | 0.329 | 0.63 | 0.371 | 0.352 | 0.423 | 0.388 | 0.421 | 0.39 | 0.436
